Assay results taken from IntAct's records for PubMed 14675752.

B1: Clathrin interactor 1 (Homo sapiens), Q14677 (parent)
chain: MLNMWKVRELVDKATNVVMNYSEIESKVREATNDDPWGPSGQLMGEIAKATFMYEQFPELMNMLWSRMLKDNKKNWRRVYKSLLLLAYLIRNGSERVVTSAREHIYDLRSLENYHFVDEHGKDQGINIRQKVKELVEFAQDDDRLREERKKAKKNKDKYVGVSSDSVGGFRYSERYDPEPKSKWDEEWDKNKSAFPFSDKLGELSDKIGSTIDDTISKFRRKDREDSPERCSDSDEEKKARRGRSPKGEFKDEEETVTTKHIHITQATETTTTRHKRTANPSKTIDLGAAAHYTGDKASPDQNASTHTPQSSVKTSVPSSKSSGDLVDLFDGTSQSTGGSADLFGGFADFGSAAASGSFPSQVTATSGNGDFGDWSAFNQAPSGPVASSGEFFGSASQPAVELVSGSQSALGPPPAASNSSDLFDLMGSSQATMTSSQSMNFSMMSTNTVGLGLPMSRSQNTDMVQKSVSKTLPSTWSDPSVNISLDNLLPGMQPSKPQQPSLNTMIQQQNMQQPMNVMTQSFGAVNLSSPSNMLPVRPQTNALIGGPMPMSMPNVMTGTMGMAPLGNTPMMNQSMMGMNMNIGMSAAGMGLTGTMGMGMPNIAMTSGTVQPKQDAFANFANFSK

Variants of: B1
Conditions: with ap1g1_mouse Ap1g1, P22892
Sequence of ap1g1_mouse Ap1g1, P22892 (P22892 whole entry): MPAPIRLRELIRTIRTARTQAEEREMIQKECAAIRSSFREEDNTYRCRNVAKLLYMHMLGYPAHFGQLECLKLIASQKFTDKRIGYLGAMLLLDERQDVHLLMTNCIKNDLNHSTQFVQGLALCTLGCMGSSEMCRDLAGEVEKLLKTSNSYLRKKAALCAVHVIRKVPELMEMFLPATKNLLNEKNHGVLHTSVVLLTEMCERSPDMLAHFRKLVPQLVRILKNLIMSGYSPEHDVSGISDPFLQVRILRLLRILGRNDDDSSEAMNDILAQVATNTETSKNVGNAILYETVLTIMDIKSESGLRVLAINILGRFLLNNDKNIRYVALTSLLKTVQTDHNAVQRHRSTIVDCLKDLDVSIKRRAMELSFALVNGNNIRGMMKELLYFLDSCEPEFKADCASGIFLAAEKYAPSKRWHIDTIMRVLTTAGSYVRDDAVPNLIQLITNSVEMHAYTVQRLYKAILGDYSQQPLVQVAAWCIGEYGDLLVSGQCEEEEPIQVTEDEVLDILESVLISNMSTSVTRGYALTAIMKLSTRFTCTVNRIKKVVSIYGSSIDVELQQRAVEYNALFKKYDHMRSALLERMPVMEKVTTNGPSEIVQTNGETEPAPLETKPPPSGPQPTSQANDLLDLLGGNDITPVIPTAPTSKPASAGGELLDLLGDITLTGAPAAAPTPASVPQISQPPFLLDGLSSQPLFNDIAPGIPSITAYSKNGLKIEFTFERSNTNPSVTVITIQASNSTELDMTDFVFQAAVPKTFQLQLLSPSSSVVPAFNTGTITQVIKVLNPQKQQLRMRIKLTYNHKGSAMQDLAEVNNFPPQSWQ

Variant	effect of a mutation on the interaction
W375A	decreasing interaction

Variants of: B1
Conditions: with ap1g1_mouse Ap1g1, P22892
Remark: another data set of the same source

Variant	effect of a mutation on the interaction
F378A	decreasing interaction

Variants of: B1
Conditions: with ap1g1_mouse Ap1g1, P22892
Remark: another data set of the same source

Variant	effect of a mutation on the interaction
F372A	decreasing interaction

Variants of: B1
Conditions: with ap1g1_mouse Ap1g1, P22892
Remark: another data set of the same source

Variant	effect of a mutation on the interaction
D374A	decreasing interaction

Variants of: B1
Conditions: with ap1g1_mouse Ap1g1, P22892
Remark: another data set of the same source

Variant	effect of a mutation on the interaction
D371A	decreasing interaction

Variants of: B1
Conditions: with ap1g1_mouse Ap1g1, P22892
Remark: another data set of the same source

Variant	effect of a mutation on the interaction
G373R	decreasing interaction
